Source: IntAct's records for PubMed 18974936

B1: Heavy metal-associated isoprenylated plant protein 26 (Arabidopsis thaliana (Mouse-ear cress)), Q9SZN7 (parent)
chain: MGVLDHVSEMFDCSHGHKIKKRKQLQTVEIKVKMDCEGCERKVRRSVEGMKGVSSVTLEPKAHKVTVVGYVDPNKVVARMSHRTGKKVELWPYVPYDVVAHPYAAGVYDKKAPSGYVRRVDDPGVSQLARASSTEVRYTTAFSDENPAACVVM
partner: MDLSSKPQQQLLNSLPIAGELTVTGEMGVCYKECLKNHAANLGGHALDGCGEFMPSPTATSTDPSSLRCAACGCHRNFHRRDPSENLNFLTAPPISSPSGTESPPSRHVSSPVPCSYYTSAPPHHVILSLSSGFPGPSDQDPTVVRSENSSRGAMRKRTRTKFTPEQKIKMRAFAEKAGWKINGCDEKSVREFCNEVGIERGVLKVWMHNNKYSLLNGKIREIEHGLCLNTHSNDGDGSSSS

Variants of: B1
Conditions: with zhd11_arath ZHD11, Q9SEZ1

Row | effect of a mutation on the interaction | Variant
1 | disrupting interaction | MGVLDHVSEMFDCSHGHKIKKRKQLQTVEIKVKMDGEGGERKVRRSVEGMKGVSSVTLEPKAHKVTVVGYVDPNKVVARMSHRTGKKVELWPYVPYDVVAHPYAAGVYDKKAPSGYVRRVDDPGVSQLARASSTEVRYTTAFSDENPAACVVM [C36G;C39G]
